The results in this text go back to US7001748.

In assay [1] the target is M2(4) (derivative of M2 containing the C-terminal linker of DEBS module 4; plasmid pST179) (UniProt Q03133). Kind of assay: fit of the rate of tetraketide formation against (5)M3+TE concentration (0.5-5 µM) at fixed 0.5 µM M2(4); kinetic saturation curve.
Assay [2] has as its target M2 (module 2 of DEBS with the natural C-terminal linker for module 2; plasmid pBP19) (UniProt Q03133). As to the kind of experiment: fit of the rate of tetraketide formation against M3+TE concentration (0.4-4 µM) at fixed 1.0 µM M2; kinetic saturation curve.
The target in assay [3] is (5)M5+TE (M5+TE; plasmid pRSG46) (UniProt Q03133). As to the kind of experiment: cell-based or functional assay.

pKd: −log10 of the molar value.

Consider “(5)M3+TE (derivative of M3+TE where the natural N-terminal linker has been replaced with the N-terminal linker of module 5 of DEBS; plasmid pST132) (from UniProt Q03133 2-41; Q03132 33-1467; Q03133 2960-3166) (enzyme)”, for which the pKd in assay [1] was 5.68.

Turning to “M3+TE (module 3 of DEBS with its own N-terminal linker and with the thioesterase fused to the C-terminus; plasmid pRSG34) (from UniProt Q03132 33-1467; Q03133 2960-3166) (enzyme)”, in assay [2], the pKd is 5.96.

In assay [3], “acyl-ACP4(4) adduct 4a ((2S,3R)-diketide on ACP4(4)) (from UniProt Q03132 3398-3567)” came in with a maximal rate increase in the elongation of 4a versus 2a greater than 40 fold.

Broadly, the pKd is −log10 of the Kd, conventionally taken in molar units.
